Assay results reported in publication PMC8789047 (Nucleic Acids Research, 2021).

B1: GST-ZNHIT2-C (domain or fragment)
chain: GPVSPLVRFQLPNVLFAYAHTLALYHGGDDALLSDFCATLLGVSGALGAQQVFASAEEALQAAAHVLEAGEHPPGPLGTRGAMHEVARILLGEGPTNQKGYTLAALGDLAQTLGRARKQAVAREERDHLYRARKKCQFLLAWTNENEAALTPLALDCARAHQAHAVVAEEV
B2: GST-ZNHIT2ΔC (domain or fragment)
chain: MEPAGPCGFCPAGEVQPARYTCPRCNAPYCSLRCYRTHGTCAENFYRDQVLGELRGCSAPPSRLASALRRLRQQRETEDEPGEAGLSSGPAPGGLSGLWERLAPGEKAAFERLLSRGEAGRLLPPWRPWWWNRGAGPQLLEELDNAPGSDAAELELAPARTPPDSVKDASAAEPAAAERVLGDVPGACTPVVPTRIPAIVSLSRGPVSPLVRFQLPNVLFAYAHTLALYHGGDDALLSDFCATLLGVSGALGAQQVFASAEEALQAAAHVLEAGEHPPGPLGTRGAMHEVARILLGEGPTNQKGYTLAALGDLAQTLGRARKQAVAREERDHLYRARKKCQFLLAWTNENEAALTPLALDCARAHQAHAVVAEEV
B3: ZNHIT2ΔC (domain or fragment)
chain: B2 chain
B4: Strep II-ECD (natural protein)
chain: MEETMKLATMEDTVEYCLFLIPDESRDSDKHKEILQKYIERIITRFAPMLVPYIWQNQPFNLKYKPGKGGVPAHMFGVTKFGDNIEDEWFIVYVIKQITKEFPELVARIEDNDGEFLLIEAADFLPKWLDPENSTNRVFFCHGELCIIPAPRKSGAESWLPTTPPTIPQALNIITAHSEKILASESIRAAVNRRIRGYPEKIQASLHRAHCFLPAGIVAVLKQRPRLVAAAVQAFYLRDPIDLRACRVFKTFLPETRIMTSVTFTKCLYAQLVQQRFVPDRRSGYRLPPPSDPQYRAHELGMKLAHGFEILCSKCSPHFSDCKKSLVTASPLWASFLESLKKNDYFKGLIEGSAQYRERLEMAENYFQLSVDWPESSLAMSPGEEILTLLQTIPFDIEDLKKEAANLPPEDDDQWLDLSPDQLDQLLQEAVGKKESESVSKEEKEQNYDLTEVSESMKAFISKVSTHKGAELPREPSEAPITFDADSFLNYFDKILGPRPNESDSDDLDDEDFECLDSDDDLDFETHEPGEEASLKGTLDNLKSYMAQMDQELAHTCISKSFTTRNQVEPVSQTTDNNSDEEDSGTGESVMAPVDVDLNLVSNILESYSSQAGLAGPASNLLQSMGVQLPDNTDHRPTSKPTKN
B5: AAR2-His (natural protein)
chain: MAAVQMDPELAKRLFFEGATVVILNMPKGTEFGIDYNSWEVGPKFRGVKMIPPGIHFLHYSSVDKANPKEVGPRMGFFLSLHQRGLTVLRWSTLREEVDLSPAPESEVEAMRANLQELDQFLGPYPYATLKKWISLTNFISEATVEKLQPENRQICAFSDVLPVLSMKHTKDRVGQNLPRCGIECKSYQEGLARLPEMKPRAGTEIRFSELPTQMFPEGATPAEITKHSMDLSYALETVLNKQFPSSPQDVLGELQFAFVCFLLGNVYEAFEHWKRLLNLLCRSEAAMMKHHTLYINLISILYHQLGEIPADFFVDIVSQDNFLTSTLQVFFSSACSIAVDATLRKKAEKFQAHLTKKFRWDFAAEPEDCAPVVVELPEGIEMG
B6: 6xHis-AAR2-Strep II (natural protein)
chain: B5 chain

How the values were obtained:
RUVBL2 [1] = molecular target: T1, RUVBL2 (human, UniProt Q9Y230 1-463); test: pull-down
RUVBL1 [2] = molecular target: T2, RUVBL1 (human, UniProt Q9Y265 1-456); test: pull-down
RUVBL1–RUVBL2 complex = RUVBL1–RUVBL2 complex (human, UniProt Q9Y265;Q9Y230); test: pull-down
Strep II-ECD = molecular target: B4; test: pull-down
[3] = molecular target: His-RUVBL1–RUVBL2 complex (human, UniProt Q9Y265;Q9Y230); test: pull-down
AAR2-His = molecular target: B5; test: pull-down
PRPF8-Flag = PRPF8-Flag (human, UniProt Q6P2Q9 1-2335); test: pull-down
6xHis-AAR2-Strep II = molecular target: B6; test: pull-down
RUVBL2 [4] = molecular target: T1, RUVBL2; test: cross-linking
RUVBL1 [5] = molecular target: T2, RUVBL1; test: cross-linking

Measured: binding result

B1
binds: RUVBL2 [1] | RUVBL1 [2] | RUVBL1–RUVBL2 complex

B2
binds: RUVBL2 [1] | Strep II-ECD | [3] | RUVBL1 [2] | RUVBL1–RUVBL2 complex

B3
binds: AAR2-His | Strep II-ECD | PRPF8-Flag | 6xHis-AAR2-Strep II | RUVBL2 [4] | RUVBL1 [5]

B4
binds: PRPF8-Flag | RUVBL1–RUVBL2 complex

B5
binds: Strep II-ECD

B6
binds: RUVBL1–RUVBL2 complex
